Source: the nanobody polyreactivity screen of Harvey et al. (2022)

Assay: yeast display, Sf9 membrane polyspecificity reagent, FACS + sequencing; frameworks hold sequencing errors
Method in brief: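 In a synthetic yeast display library (Saccharomyces cerevisiae BJ5465), nanobody expression was induced with galactose for 36–48 hours. FACS gates were set low and high (top ~1%) using anti-HA fluorescence for expression and streptavidin fluorescence for binding of the Sf9 membrane reagent. Each polyreactivity label is drawn from the gate of origin.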

QVQLVESGGGLVQAGGSLRLSCAASGSTFSVYAMGWYRQAPGKERELVAAISSGGTTNYADSVKGRFTISRDNAKNTVYLQMNSLKPEDTAVYYCAAEYDHYPYDYYWGQGTQVTVSS
polyreactivity (PSR sort gate): low polyreactivity

QVQLVESGGGLVQAGGSLRLSCAASGRTIASYTMGWYRPAPGKERDLVAAISKSGGSTYYADSVKGRFTISRDNSKNTVYLQMNSLKPEDTAVYYCNAVGARVASATGMEYWGQGTQVTVSS
polyreactivity (PSR sort gate): high polyreactivity

QVQLVESGGGLVQAGGSLRLSCAASGRTFSRYAMGWYRQAPGKERELVAAITSGGGSTYYADSVKGRFTISRDNAKNTVYLQMNSLKPEDTAVYYCAARTSGDGWIYYYWGQGTQVTVSS
polyreactivity (PSR sort gate): high polyreactivity

QVQLVESGGGLVQAGGSLRLSCAASGSIFYVNAMGWYRQAPGKDRELVAAISVRGGRTYYADSVKGRFTISRDNAKNTVYLQLNSLKPEDTAVYYCATRISTVGRYDYWGQGTQVTVSS
polyreactivity (PSR sort gate): high polyreactivity

QVQLVESGGGLVQAGGSLRLSCAASGMGWYRQAPGKERELVATITWSDGITYADSVKGRFTISRDNAKNTVYLQMNSLKPEDTAVYYCNADWDQTGTVFYSFGMREMDSWGQGTQVTVSS
polyreactivity (PSR sort gate): low polyreactivity

QVQLVESGVGFVQAGASLRLSSAASGSIFRINAMGWYRQAPGKVRELVAAITRSGGSTFYADSVKGRFTMSRDYAKNTVYFQMHSLTPEDTAVYFCAAVWYYSTVPARYEYWGQGTQVTVSS
polyreactivity (PSR sort gate): low polyreactivity

QVQLVESGGGLVQEGGSLGLSCAASGRIFIPYAMGWYRQETGKEREFVATIRWRGGRTYYADSVKGRFTISRDNAKNTVYLQLYSLKPEDTAVYYCAARSNALFRFDYWGQGTQVSVSS
polyreactivity (PSR sort gate): high polyreactivity

QVQLVESGGGLVQAGGSLRLSCAASGSILYRYTMGWDRQAPGKERELVAAISFSGGRTYYADSVKGRFTISRDNAKNTVYLQMNSLKPEDTAVYYCNAGTSGKYGYWGQGTQVTVSS
polyreactivity (PSR sort gate): high polyreactivity

QVQLVESGGGLVQAGGSLRLSCSASGFIFSRYVMGWYRKAPGKEREFVAVISYRGGSTYYADSVKGRFTFSRDNAKNTVYLQMNSLKPEDTAVYYCNADTIPDGEDRYDYWGQGTQVTVSS
polyreactivity (PSR sort gate): low polyreactivity

QVRLVESGGGLVQAGGSLRLSCAASARILPYYPMGWYRQAPGKERELVAAISWSGGRTYYADSVKGRFTISRDNAKNTVYLQMNSLKPEDTAVYYWATRRVTHVPGSSRYDYWGQGTQVTVSS
polyreactivity (PSR sort gate): low polyreactivity

QVQLVESGGGLVQAGGSLRLTCAASGYTFVLNALGWYRQAPGKEREFVAAITWSGGSTYYADSVKGRFTISRDNAKNTVYLQMNSLKAEDTAVYYCAADPDSGQVPFDYWGQGTQVTVSS
polyreactivity (PSR sort gate): low polyreactivity

QVQLVESGGGLVQAGGSLRLSSAASGNIFSDYAMGWNIQAPGKERELVAAISSGGNTNYADSVKGRFTISRDNAKNTVYLQMNSLKPEDTAVYYCAAVYNTTYTLLPEYIYDYWGHGTQVTVSS
polyreactivity (PSR sort gate): low polyreactivity

QVQLVESGGGLVQAGGSLRLSCAASGRIFQYYAMGWYRQAPGKEREFVAAITGRGTRTYADSVKGRFTISRDNAKYTVYLQMNSLKPEDTAVYYCAKPFHYGRSYRSKMDYWGQGTQVTVSS
polyreactivity (PSR sort gate): high polyreactivity

QVQLVESGGGLVQAGGSLRLSCAASGSTFKRYTMGWYRQAPGKERELVARISWGGSTTYYAYSVKGRFTISRDNAKNTVYLQMNSLKPEDTAVYYCAASWSWYGNRGTYRYPPRYDYWGQGTQVTVSS
polyreactivity (PSR sort gate): high polyreactivity

QVQLVESGGGLVQAGGILLLSCAASGRTFRVNTMGWYRQAPGTESELVAAISYSGASTYYADSVKGRFTISRDNAKNTVYLQMNSLKPEDTAVYYCAAAVGVALNDYWGQGTQVTVSS
polyreactivity (PSR sort gate): high polyreactivity

QVQLVESGGGLVQAGGSLRLSCAASGRIFGNYAMGWYIQAPGKERELVAAISSGGNTNYADSVKGRFTISRDNAKNTVYLQMNSLKPEDTAVYYCAAYHFSFGWIRVDYWGQGTQVTVSS
polyreactivity (PSR sort gate): high polyreactivity

QVQLVESGGGLVQAGGSLRLSCAASGFTFYHNAMGWYRQATGKERELVATITARGGRTYYADSVKGRFTISRDNAKNTVYLQMNSLKPVDTAVYYCNVKASRGYTYEYDYWGQGTQVTVSS
polyreactivity (PSR sort gate): high polyreactivity

QFQLVESGGGLVQAGGSLRLSCAASGIIFGRYTKGWYRDAPGKETELVAAITSSGITYYADSVKGRFTISRDNAKNTVYLQMNSLKPEDTAVYYCAADVGYWGRSRGYPSDDYDYWGQGTQVTVSS
polyreactivity (PSR sort gate): low polyreactivity

QVQLVDSGGGLVQAGGSHRLSCAASGIIFPTYDMGWYRPAPGKERELVAAITWSTGSTTYADSVKGRFTISRDNAKNTVYLQMNSLKPEDTAVYYCNKDSEGSGGEFDDWGQGTQVTVSS
polyreactivity (PSR sort gate): low polyreactivity

QVQLVESGGGLVQAGGSLRLSCAASGRTFSYYAMGWYRQAPGKERELVATIRFSGGGTYYADSVKGRFTISRDNAKNTVYLQMNSLKPEDTAVYYCNADSIDPFLYDYWGQGTQVTVSS
polyreactivity (PSR sort gate): low polyreactivity

QVQLVESGGGLDQAGGSLRLSCAASGIIITIYAMVWYRQAPGKERELVAAISFSVGSTYYADSVKGRFTISRDNAKNTFFLQMNSLKPEDTAVYYCAAESYTYPFEYWGQGTQVTVSS
polyreactivity (PSR sort gate): high polyreactivity

QVQLVESGGGLVQAGGSLRLSCAASGRIFDRYAMGWYRQAPGKEMELVAAISSDANTYYADSVKGRFTISRDNAKNTVYLQMNSLKPEDTAVYYCAKVVKGDHPYDYWGQGTQVTVSS
polyreactivity (PSR sort gate): high polyreactivity

QVQLVESGGGLVQAGGSLRLSCAASGRTLPATGMGWYRQAPGKERELVAAINWRGGITYYADSVKGRFTISRDNAKNTVYLQMNSLKPVDTAVYYCARLRYFLLNGSLRYGTSDRDYWGQGTQVTVSS
polyreactivity (PSR sort gate): high polyreactivity

QVQLVESGGGLVQAGGSLRLSCAASGSTFTLYAKGWYRQAPGKERELVAAINGAGSTYYADSVKGRFTISRDNAKNTVYLQMNSLKPEDTAVYYCAKDLQYGWYDYWGQGTQVTVSS
polyreactivity (PSR sort gate): low polyreactivity

QVQLVESGGGLVQAGGSLRLSCAASGFTFIPNAMGWYRQAPGKERELVADITWSGGTTYYADSVKGRFTISRDNAKNTVYLQMNSLKPEDTAVYYCNADYLFYAFDYWGQGTQVTVSS
polyreactivity (PSR sort gate): low polyreactivity

QVQLVESGGGLVQAGGSLRLSCAASGSIFAQYAMGWYRQAPGKETELVAAISYRGGRTYYADSVKGRFTISRDNAKNTVYLQMNSLKPEDTAVYYCNADSSSYSSDLGYDYWGQGTQVTVSS
polyreactivity (PSR sort gate): low polyreactivity

QVHLEESGGGLVQAGGSLRISCAASGSTFYYYAMGWYRQAPGKERELVAAISNRDGRTYYADSVKGRFTISRDNAKNTVYLQMNSLKPEDSAVYYCNAYSYGHYYWGQGTQVTVSS
polyreactivity (PSR sort gate): high polyreactivity

QVQLVESGGGLVQAGGSLRLSCAASGIIFNDYAMGWYRQAPGKERELVATISWSGGSTYADSVKGRFTISRDNAKNTVYLQMNSLKPEDTAVYYCAAVPRRSYGGYPYYYWGQGTQVTVSS
polyreactivity (PSR sort gate): low polyreactivity

QVQLVESGGGLVQAGGSRRLSCAASGGTFPFNAMGWYSPAPGKERELVAAITFTTSSTYYADSVKGRFTMSRDNAKNTVYLQMTSLKPEDTAVDYCAVDYGWYSAYYRESDYWGQGTQVTVSS
polyreactivity (PSR sort gate): low polyreactivity

QVQLVESGGGLVQAGGSLRLSCDASGNIFSDYTMGWYRQAPGKERELVAAISGDGGTTYYADSVKGRFTISRDNAKNTVYLQMNSLNPEDTAVYYCAADGYYDAYDQFFIVYYEYDYWGQGTQVTVSS
polyreactivity (PSR sort gate): low polyreactivity

QVQLVESGGGLVQAGGSLRLSCAASGIIFFKNAMGWYRQAPGKERELVAAISSTDTRTYYADSVKGRFTISRDNAKNTVYLQMNSLKPEDTAVYYCAASRRGGGLDYWGQGTQVTVSS
polyreactivity (PSR sort gate): high polyreactivity

QVQLVESGGGLVQAGGSLRLSCAASGFIFWPNAMGWYRQPPGKERELVAAISYSGGSTYYADSVKGRFTISRDNAKNTVYLQMNSLKPEDTAVYYCAKLPYRRVDYGYWGQGTQVTVSS
polyreactivity (PSR sort gate): high polyreactivity
